T1: Ric1 (S. cerevisiae, UniProt P40395 1-1056)
T1 sequence: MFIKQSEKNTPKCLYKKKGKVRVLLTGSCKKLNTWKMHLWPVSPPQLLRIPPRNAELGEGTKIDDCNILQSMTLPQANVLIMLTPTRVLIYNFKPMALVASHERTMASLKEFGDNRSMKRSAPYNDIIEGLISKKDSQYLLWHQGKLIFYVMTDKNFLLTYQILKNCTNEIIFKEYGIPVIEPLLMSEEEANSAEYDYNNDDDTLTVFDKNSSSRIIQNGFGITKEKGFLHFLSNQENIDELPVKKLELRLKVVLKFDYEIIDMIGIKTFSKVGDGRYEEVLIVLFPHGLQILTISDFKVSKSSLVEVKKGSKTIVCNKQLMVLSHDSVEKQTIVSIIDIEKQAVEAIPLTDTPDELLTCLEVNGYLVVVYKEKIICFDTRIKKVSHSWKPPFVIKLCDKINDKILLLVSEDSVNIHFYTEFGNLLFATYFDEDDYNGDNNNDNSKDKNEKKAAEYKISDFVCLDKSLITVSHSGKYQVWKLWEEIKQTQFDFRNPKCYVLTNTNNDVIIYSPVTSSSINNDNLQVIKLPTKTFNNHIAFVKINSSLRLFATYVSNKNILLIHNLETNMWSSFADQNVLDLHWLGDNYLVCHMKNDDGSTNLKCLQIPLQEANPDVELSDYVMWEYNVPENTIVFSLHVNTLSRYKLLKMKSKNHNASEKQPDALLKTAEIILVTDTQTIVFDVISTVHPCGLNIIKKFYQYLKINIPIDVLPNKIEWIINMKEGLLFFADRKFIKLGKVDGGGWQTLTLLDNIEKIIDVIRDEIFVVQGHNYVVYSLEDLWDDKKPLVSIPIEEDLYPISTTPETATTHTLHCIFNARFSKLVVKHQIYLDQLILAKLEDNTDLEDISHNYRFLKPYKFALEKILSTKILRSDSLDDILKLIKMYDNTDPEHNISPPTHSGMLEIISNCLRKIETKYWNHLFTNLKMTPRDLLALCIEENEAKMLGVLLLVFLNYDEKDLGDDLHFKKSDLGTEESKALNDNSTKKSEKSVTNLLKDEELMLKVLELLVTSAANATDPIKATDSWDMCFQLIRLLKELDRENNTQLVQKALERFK

T2: Gdi1 (yeast, UniProt P39958 1-451)
T2 sequence: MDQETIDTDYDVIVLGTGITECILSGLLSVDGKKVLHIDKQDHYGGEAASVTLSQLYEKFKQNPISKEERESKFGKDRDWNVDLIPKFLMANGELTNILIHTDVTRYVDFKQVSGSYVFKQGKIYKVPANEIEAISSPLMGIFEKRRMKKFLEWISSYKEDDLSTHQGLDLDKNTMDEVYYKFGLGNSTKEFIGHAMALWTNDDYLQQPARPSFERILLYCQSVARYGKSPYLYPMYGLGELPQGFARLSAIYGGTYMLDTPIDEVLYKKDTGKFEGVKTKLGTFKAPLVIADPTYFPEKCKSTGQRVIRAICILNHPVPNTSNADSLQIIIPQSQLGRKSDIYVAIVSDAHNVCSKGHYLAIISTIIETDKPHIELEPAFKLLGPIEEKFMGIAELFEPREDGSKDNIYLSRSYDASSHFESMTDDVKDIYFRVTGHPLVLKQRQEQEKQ

B1: Rgp1 (natural protein)
chain: MRAHRIDTFLIRENIKLEIIHESNSYFGGEHISIAFRFKHLGSQHELFNYKEKLLTVDKAVEEKLEQQAKVQDDGEGTMENQTWSLKSLLGAFKRTGEPEESVDVDNMKMLNESKMLREKIQKQMYFHQPVTLISGYVQISGVFQYDSEVISESKFKQDEVKMVGLDIVPGHTTNSVLALEDGEHFKGKRNLTNYLNSDYTNVTNGLLFSESGSRGRTGTYNERTLMISNDTSIKTLPLLLIPQTLLFSEISLEPGEVRTFYFKSTKLPKDICPSYSSSKVASINYTLEVGADVLSDDNIEKFSNRVPITIAPYISSNAEQYTSRLDKPAIILKTGNIKELKPRLFTRKVSTASAVSFGRRKSSIIDIDSPLEDNEFVKRVKKNFIELVESNQNVSRDIDELIDLQMGVQFGKDEDSSDPEPNDSHFSNEMVTSAESSLRSDAVTKRRKSYSVRDNISNLEQKMWNDCSLVKSDENSNLLPQLINLQNAYQINRNNETMAKVSLSAPFYKTTDDINLVIELDPITTPLLKVTSLTVSLESFEIINPKYKTEGKGIGSKPKGNSVYEKHFICFDECKSVSVKLLPPRSPTNQITGQFKTDVFQHKWMIGLKFVIIAKTESITLDQFYEDKKGILFHSKENLEGEEFTCYVPIPILCTSEDFMGW
B2: prenylated Rab6-mantGDP (natural protein)
chain: MSRSGKSLTKYKIVFLGEQGVGKTSLITRFMYDTFDDHYQATIGIDFLSKTMYLDDKTIRLQLWDTAGQERFRSLIPSYIRDSRVAIIVYDITKRKSFEYIDKWIEDVKNERGDENVILCIVGNKSDLSDERQISTEEGEKKAKLLGAKIFMETSTKAGYNVKALFKKIAKSLPEFQNSESTPLDSENANSANQNKPGVIDISTAEEQEQSACQC
modifications: C-terminal cysteines prenylated (geranylgeranyl)

Key:
Ric1 = target: T1, Ric1; experiment: cryo-EM structure
Gdi1 = target: T2, Gdi1; experiment: SEC

Binder | binding result (Ric1) | binding result (Gdi1)
B1 | binds | –
B2 | – | binds
